From US20220259317A1 come the findings set out here.

The experiment has as its target FLT3 CAR (Short Form; NC7 based FLT3 CAR), SEQ ID NO: 1/29. Put plainly: flow cytometry of FLT3 CAR transduced T cells stained with biotinylated protein L and streptavidin PE. On the technique in general: A flow cytometer gives signals particle by particle.

FLT3 CAR (Short Form; NC7 based FLT3 CAR), SEQ ID NO: 1/29, sequence (chain, as listed by the source): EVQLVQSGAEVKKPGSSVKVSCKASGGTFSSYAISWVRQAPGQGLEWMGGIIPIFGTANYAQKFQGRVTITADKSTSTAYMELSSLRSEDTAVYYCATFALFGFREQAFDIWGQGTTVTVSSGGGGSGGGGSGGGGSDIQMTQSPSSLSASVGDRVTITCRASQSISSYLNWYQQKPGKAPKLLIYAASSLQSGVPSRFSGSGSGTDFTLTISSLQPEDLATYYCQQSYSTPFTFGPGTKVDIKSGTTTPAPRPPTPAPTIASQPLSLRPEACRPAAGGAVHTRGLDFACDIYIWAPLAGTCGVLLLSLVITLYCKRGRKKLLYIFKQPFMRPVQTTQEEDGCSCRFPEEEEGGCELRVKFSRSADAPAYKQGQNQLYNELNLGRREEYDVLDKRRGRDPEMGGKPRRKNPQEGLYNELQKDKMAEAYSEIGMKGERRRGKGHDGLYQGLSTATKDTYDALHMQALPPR

biotinylated protein L (Genscript) showed a % positive cells of 77.1%.
